Experimental data taken from the Immune Epitope Database (IEDB).

Assays:
[1] = biological target: HLA-A*02:01; assay: IEDB peptide-MHC binding, purified MHC/competitive/fluorescence; filed as Kd, often an IC50 or EC50 that approximates it; ≥ and ≤ were set here for values at or beyond the usual limits of such assays
[2] = biological target: HLA-A*02:03; assay: as above
[3] = biological target: HLA-A*02:06; assay: as above
[4] = biological target: HLA-A*02:11; assay: as above
[5] = biological target: HLA-A*02:12; assay: as above
[6] = biological target: HLA-A*02:16; assay: as above
[7] = biological target: HLA-A*02:19; assay: as above
[8] = biological target: HLA-A*69:01; assay: as above
[9] = biological target: HLA-A*32:07; assay: as above; settings: source organism: West Nile virus
[10] = biological target: HLA-A*32:15; assay: as above; settings: source organism: West Nile virus
[11] = biological target: HLA-A*68:23; assay: as above; settings: source organism: West Nile virus
[12] = biological target: HLA-B*15:42; assay: as above; settings: source organism: West Nile virus
[13] = biological target: HLA-B*45:06; assay: as above; settings: source organism: West Nile virus
[14] = biological target: HLA-B*83:01; assay: as above; settings: source organism: West Nile virus
[15] = biological target: HLA-A*02:01; assay: IEDB peptide-MHC binding, purified MHC/competitive/radioactivity; filed as Kd, often an IC50 or EC50 that approximates it; ≥ and ≤ were set here for values at or beyond the usual limits of such assays
[16] = biological target: HLA-A*02:03; assay: as above
[17] = biological target: HLA-A*02:17; assay: as above
[18] = biological target: HLA-C*12:03; assay: IEDB peptide-MHC binding, purified MHC/direct/fluorescence; filed as Kd, often an IC50 or EC50 that approximates it; ≥ and ≤ were set here for values at or beyond the usual limits of such assays; settings: source organism: Bacillus anthracis str. A0488
[19] = biological target: HLA-C*15:02; assay: as above
[20] = biological target: HLA-A*29:02; assay: IEDB peptide-MHC binding, purified MHC/competitive/fluorescence; filed as Kd, often an IC50 or EC50 that approximates it; ≥ and ≤ were set here for values at or beyond the usual limits of such assays
[21] = biological target: HLA-A*03:01; assay: as above
[22] = biological target: HLA-B*35:01; assay: as above
[23] = biological target: HLA-A*24:03; assay: as above
[24] = biological target: HLA-A*26:01; assay: as above
[25] = biological target: HLA-A*68:02; assay: as above
[26] = biological target: HLA-B*27:03; assay: as above
[27] = biological target: HLA-B*39:01; assay: as above
[28] = biological target: HLA-A*02:06; assay: IEDB peptide-MHC binding, purified MHC/competitive/radioactivity; filed as Kd, often an IC50 or EC50 that approximates it; ≥ and ≤ were set here for values at or beyond the usual limits of such assays
[29] = biological target: HLA-B*08:01; assay: as above; settings: source organism: Dengue virus 1 Brazil/97-11/1997
[30] = biological target: HLA-B*07:02; assay: IEDB peptide-MHC binding, purified MHC/direct/fluorescence; filed as Kd, often an IC50 or EC50 that approximates it; ≥ and ≤ were set here for values at or beyond the usual limits of such assays; settings: source organism: Mammarenavirus juninense
[31] = biological target: HLA-B*51:01; assay: IEDB peptide-MHC binding, purified MHC/competitive/fluorescence; filed as Kd, often an IC50 or EC50 that approximates it; ≥ and ≤ were set here for values at or beyond the usual limits of such assays
[32] = biological target: HLA-B*53:01; assay: IEDB peptide-MHC binding, purified MHC/competitive/radioactivity; filed as Kd, often an IC50 or EC50 that approximates it; ≥ and ≤ were set here for values at or beyond the usual limits of such assays; settings: source organism: Mammarenavirus juninense
[33] = biological target: HLA-B*54:01; assay: as above; settings: source organism: Mammarenavirus juninense
[34] = biological target: HLA-A*31:01; assay: IEDB peptide-MHC binding, purified MHC/competitive/fluorescence; filed as Kd, often an IC50 or EC50 that approximates it; ≥ and ≤ were set here for values at or beyond the usual limits of such assays; settings: source organism: Escherichia coli 536
[35] = biological target: HLA-B*15:01; assay: as above
[36] = biological target: HLA-B*18:01; assay: as above
[37] = biological target: HLA-B*46:01; assay: as above
[38] = biological target: HLA-B*57:01; assay: as above
[39] = biological target: HLA-B*15:17; assay: as above; settings: source organism: Cryptosporidium parvum Iowa II
[40] = source organism: Human immunodeficiency virus 1
[41] = source organism: Dengue virus 4 Philippines/H241/1956
[42] = source organism: Bacillus anthracis str. A0488
[43] = source organism: Salmonella enterica subsp. enterica serovar Typhi
[44] = source organism: Entamoeba histolytica HM-1:IMSS
[45] = source organism: Dengue virus 2 Jamaica/1409/1983
[46] = source organism: Dengue virus 3 China/80-2/1980
[47] = source organism: Dengue virus 1 Singapore/S275/1990
[48] = source organism: Dengue virus 1 Brazil/97-11/1997
[49] = source organism: Mammarenavirus juninense
[50] = source organism: Human herpesvirus 5 strain Towne
[51] = source organism: Escherichia coli 536
[52] = source organism: Cryptosporidium parvum Iowa II

DLADQLIHL
Kd [1, 40]: 178 nM | Kd [2, 40]: 136 nM | Kd [3, 40]: 59 nM | Kd [4, 40]: 33 nM | Kd [5, 40]: 476 nM | Kd [6, 40]: 55.5 nM | Kd [7, 40]: 42.5 nM | Kd [8, 40]: 19.8 nM

ETTNWLWTF
Kd [9]: 1.7 nM | Kd [10]: 18.5 nM | Kd [11]: 2.2 nM | Kd [12]: ≥ 5000 nM | Kd [13]: ≥ 5000 nM | Kd [14]: ≥ 5000 nM

FMTATPPGA
Kd [15, 41]: 49 nM | Kd [16, 41]: 152 nM | Kd [17, 41]: 6440 nM

FVFGIPLLV
Kd [18]: ≤ 1 nM | Kd [19, 42]: 41 nM | Kd [20, 42]: 0.2 nM

HVCYFSHPY
Kd [21, 43]: ≥ 20000 nM | Kd [22, 43]: 0.7 nM

KLSMGLIAI
Kd [15, 41]: 12.4 nM | Kd [16, 41]: 31.4 nM | Kd [17, 41]: 2480 nM

KTFEWGVFY
Kd [2, 44]: ≥ 20000 nM | Kd [5, 44]: ≥ 20000 nM | Kd [6, 44]: ≥ 20000 nM | Kd [7, 44]: ≥ 20000 nM | Kd [23, 44]: ≥ 20000 nM | Kd [24, 44]: ≥ 20000 nM | Kd [20, 44]: 0.5 nM | Kd [25, 44]: ≥ 20000 nM | Kd [8, 44]: ≥ 20000 nM | Kd [26, 44]: ≥ 20000 nM | Kd [27, 44]: ≥ 20000 nM

KTIPVAMTL
Kd ([19]; source organism: Salmonella enterica subsp. enterica serovar Typhimurium str. LT2): 15 nM

LIFILLTAV
Kd [15, 45]: 74.4 nM | Kd [16, 45]: 56.2 nM | Kd [28, 45]: 497 nM | Kd [17, 45]: 3590 nM

LLLGLMILL
Kd [15, 46]: 13.6 nM | Kd [17, 46]: 110 nM

LLMRTTWAL
Kd [15, 47]: 21.4 nM | Kd [16, 48]: 0.817 nM | Kd [28, 48]: 1.43 nM | Kd [17, 47]: 4.89 nM | Kd [29]: 20.7 nM

LPTTITVPV
Kd [30]: 824 nM | Kd [22, 49]: ≤ 0.1 nM | Kd [31, 49]: 700 nM | Kd [32]: 127 nM | Kd [33]: 9 nM

NLVPMVATV
Kd [3, 50]: ≤ 0.1 nM | Kd [4, 50]: ≤ 0.1 nM | Kd [5, 50]: 1.55 nM | Kd [6, 50]: 0.543 nM | Kd [7, 50]: 0.6 nM | Kd [8, 50]: 75 nM

RVGIYFGMK
Kd [1, 51]: ≥ 20000 nM | Kd [2, 51]: ≥ 20000 nM | Kd [4, 51]: ≥ 20000 nM | Kd [5, 51]: ≥ 20000 nM | Kd [6, 51]: ≥ 20000 nM | Kd [7, 51]: ≥ 20000 nM | Kd [23, 51]: ≥ 20000 nM | Kd [24, 51]: ≥ 20000 nM | Kd [34]: 45.6 nM | Kd [25, 51]: ≥ 20000 nM | Kd [8, 51]: ≥ 20000 nM | Kd [35, 51]: ≥ 20000 nM | Kd [36, 51]: ≥ 20000 nM | Kd [27, 51]: ≥ 20000 nM | Kd [37, 51]: ≥ 20000 nM | Kd [31, 51]: ≥ 20000 nM | Kd [38, 51]: ≥ 20000 nM

TLLLLTLLAT
Kd [15, 45]: 141 nM | Kd [17, 45]: 1320 nM

VTNRHEEKF
Kd ([19]; source organism: human gammaherpesvirus 4): 4270 nM

VYWENEVSI
Kd [1, 52]: ≥ 20000 nM | Kd [2, 52]: ≥ 20000 nM | Kd [4, 52]: ≥ 20000 nM | Kd [5, 52]: 286 nM | Kd [6, 52]: ≥ 20000 nM | Kd [7, 52]: ≥ 20000 nM | Kd [21, 52]: ≥ 20000 nM | Kd [24, 52]: ≥ 20000 nM | Kd [20, 52]: ≥ 20000 nM | Kd [25, 52]: ≥ 20000 nM | Kd [8, 52]: ≥ 20000 nM | Kd [35, 52]: ≥ 20000 nM | Kd [39]: ≥ 20000 nM | Kd [36, 52]: ≥ 20000 nM | Kd [26, 52]: ≥ 20000 nM | Kd [27, 52]: ≥ 20000 nM | Kd [37, 52]: ≥ 20000 nM | Kd [31, 52]: ≥ 20000 nM | Kd [38, 52]: ≥ 20000 nM

YMPTVIEEL
Kd [15, 41]: 39.6 nM | Kd [16, 41]: 91.9 nM | Kd [28, 41]: 46.9 nM | Kd [17, 41]: 5.23 nM
